Measurements as given in patent US20240058446A1, “CHIMERIC TIM4 RECEPTORS AND USES THEREOF” (CERO THERAPEUTICS, INC., priority 2019, published 2024).

How the values were obtained:
[1] = tested on: JeKo-1 mantle cell lymphoma cells; assay: Incucyte killing of ibrutinib pre-treated JeKo-1 mCherry+ cells by chimeric Tim4 receptor T cells; type: cell-based; conditions: JeKo-1 pre-treated with 25 μM ibrutinib for 20 hours; 2:1 effector:target ratio; 0.5 μM ibrutinib present; FIG. 16
Experimental: FIG. 16. Chimeric Tim4 receptor killing of ibrutinib pre-treated JeKo-1 cells. JeKo-1 mantle cell lymphoma cells engineered to express mCherry were pre-treated with 25 μM ibrutinib for 20 hours. T cells transduced with chimeric Tim4 receptor (CTX137) or CTX156 (tEGFR control) were co-cultured at a 2:1 effector:target ratio with JeKo-1 cells mCherry+ cells in the presence of 0.5 μM ibrutinib. Surviving JeKo-1 mCherry+ cells were counted every 2 hours and normalized to the count at 2 h. Wells were plated in duplicate. Error bars represent +/−SEM.
Chimeric Tim4 receptor-T cells were generated from healthy donor PBMCs. CD4+ and CD8+ T cells were isolated and mixed at a 1:1 ratio, then stimulated overnight with TransACT. Activated T cells were transduced with 5MOI of the indicated construct (CTX137 or CTX156). Cells were used for Incucyte experiments 6 days after transduction. JeKo-1 cells engineered to express mCherry were treated with 25 μM BTK inhibitor ibrutinib for 20 hours then washed. T cells and target cells were incubated at a 2:1 effector:target ratio in the presence of 0.5 μM ibrutinib. Surviving JeKo-1 mChery+ cells were counted every 2 hours and normalized to the count at 2 hours. Wells were plated in duplicate.

[2] = tested on: JeKo-1 mantle cell lymphoma cells; assay: Incucyte co-culture of chimeric Tim4 receptor T cells with JeKo-1 mCherry+ cells; type: cell-based; conditions: 1:1 E:T ratio; T cells transduced with 5MOI; FIG. 17
Experimental: FIG. 17. Multiple chimeric Tim4 constructs eliminate ibrutinib treated JeKo-1 cells. T cells generated from healthy donor PBMCs were transduced with 5MOI of CTX137, CTX140, CTX143, or CTX156 (tEGFR control). Cells were cocultured at a 1:1 E:T ratio with Jeko-1 mCherry+ cells. Surviving Jeko-1 mCherry+ cells were counted every 2 hours and normalized to the count at 2 h. Wells were plated in duplicate. Error bars represent +/−SEM.
Chimeric Tim4 receptor (CTX137, CTX140, or CTX143) modified T cells were generated from healthy donor PBMCs. CD4+ and CD8+ T cells were isolated and mixed at a 1:1 ratio, then stimulated overnight with TransACT. Activated T cells were transduced with 5MOI of the indicated construct. Cells were used for Incucyte experiments 6 days after transduction. JeKo-1 mCherry+ cells were plated with chimeric Tim4 receptor-T cells at a 1:1 effector:target (E:T) ratio. Surviving Jeko-1 mCherry+ cells were counted every 2 hours and normalized to the count at 2 h. Wells were plated in duplicate.

Jeko-1 MCL tumor = assay: JeKo-1 fLuc+ tumor model, chimeric Tim4 receptor T cells plus ibrutinib, bioluminescence imaging; type: in vivo; conditions: NSG mice, 1e6 Jeko-1 fLuc+ i.v.; ibrutinib 125 mg/kg daily for 3 days, then 1e6 T cells i.v. and 8 mg/kg ibrutinib daily; FIG. 18
Experimental: FIG. 18. […] NSG mice were inoculated i.v. with 1e6 Jeko-1 fLuc+ cells. 4 days after inoculation, mice were dosed daily with 125 mg/kg ibrutinib by oral gavage for 3 days. 7 days after inoculation, 1e6 chimeric Tim4 receptor-T cells were infused i.v. Following T cell infusion, mice were dosed daily with 8 mg/kg ibrutinib. N=10 mice per group. Chimeric Tim4 receptor-T cells were generated from healthy donor PBMCs. CD4+ and CD8+ T cells were isolated and mixed at a 1:1 ratio, then stimulated overnight with TransACT. Activated T cells were transduced with 5MOI of the indicated construct (CTX137, CTX140, or CTX156). Cells were used for Incucyte experiments 7 days after transduction. NSG mice were inoculated intravenously with 1e6 Jeko-1 fLuc+ cells. Mice were dosed with 125 mg/kg of Ibrutinib by oral gavage daily for 3 days, then transfused with 1e6 CER-T cells and dosed daily with 8 mg/kg Ibrutinib for the duration of the experiment. Tumor growth was monitored by bioluminescence imaging (BLI) (sum of photons from 8 sec exposure). n=10 for each group.

| Molecule | killing of ibrutinib pretreated JeKo-1 cells (surviving mCherry+ cells normalized to count at 2 h) [1] | elimination of JeKo-1 cells (surviving mCherry+ cells normalized to count at 2 h) [2] | protection against JeKo-1 tumor (tumor growth by BLI) (Jeko-1 MCL tumor) |
| --- | --- | --- | --- |
| CTX137: Chimeric Tim4 receptor (SEQ ID NO:68): Tim4 binding domain, CD28 transmembrane, CD28 costimulatory, DAP12 signaling domain; expressed in T cells (protein, Tim4 binding domain-CD28 transmembrane-CD28 costimulatory signaling domain-DAP12 signaling domain; SIGNAL (1)..(24), expressed in T cells) MSKEPLILWLMIEFWWLYLTPVTSETVVTEVLGHRVTLPCLYSSWSHNSNSMCWGKDQCPYSGCKEALIRTDGMRVTSRKSAKYRLQGTIPRGDVSLTILNPSESDSGVYCCRIEVPGWFNDVKINVRLNLQRASTTTHRTATTTTRRTTTTSPTTTRQMTTTPAALPTTVVTTPDLTTGTPLQMTTIAVFTTANTCLSLTPSTLPEEATGLLTPEPSKEGPILTAESETVLPSDSWSSVESTSADTVLLTSKESKVWDLPSTSHVSMWKTSDSVSSPQPGASDTAVPEQNKTTKTGQMDGIPMSMKNEMPISQFWVLVVVGGVLACYSLLVTVAFIIFWVRSKRSRLLHSDYMNMTPRRPGPTRKHYQPYAPPRDFAAYRSYFLGRLVPRGRGAAEAATRKQRITETESPYQELQGQRSDVYSDLNTQRPYYK | induced killing | eliminate JeKo-1 mantle cell lymphoma cells | provide early protection |
| CTX140: Chimeric Tim4 receptor (SEQ ID NO:44): Tim4 binding domain, CD28 hinge, CD28 transmembrane, CD28 costimulatory, DAP12 signaling domain (protein, Tim4 binding domain-CD28 hinge-CD28 transmembrane-CD28 costimulatory signaling domain-DAP12 signaling domain; SIGNAL (1)..(24)) MSKEPLILWLMIEFWWLYLTPVTSETVVTEVLGHRVTLPCLYSSWSHNSNSMCWGKDQCPYSGCKEALIRTDGMRVTSRKSAKYRLQGTIPRGDVSLTILNPSESDSGVYCCRIEVPGWFNDVKINVRLNLQRASTTTHRTATTTTRRTTTTSPTTTRQMTTTPAALPTTVVTTPDLTTGTPLQMTTIAVFTTANTCLSLTPSTLPEEATGLLTPEPSKEGPILTAESETVLPSDSWSSVESTSADTVLLTSKESKVWDLPSTSHVSMWKTSDSVSSPQPGASDTAVPEQNKTTKTGQMDGIPMSMKNEMPISQIEVMYPPPYLDNEKSNGTIIHVKGKHLCPSPLFPGPSKPFWVLVVVGGVLACYSLLVTVAFIIFWVRSKRSRLLHSDYMNMTPRRPGPTRKHYQPYAPPRDFAAYRSYFLGRLVPRGRGAAEAATRKQRITETESPYQELQGQRSDVYSDLNTQRPYYK | – | eliminate JeKo-1 mantle cell lymphoma cells | provide early protection |
| CTX143: Chimeric Tim4 receptor (SEQ ID NO:45): Tim4 binding domain, modified IgG4 hinge, CD28 transmembrane, CD28 costimulatory, DAP12 signaling domain (protein, Tim4 binding domain-modified IgG4 hinge-CD28 transmembrane-CD28 costimulatory signaling domain-DAP12 signaling domain; SIGNAL (1)..(24)) MSKEPLILWLMIEFWWLYLTPVTSETVVTEVLGHRVTLPCLYSSWSHNSNSMCWGKDQCPYSGCKEALIRTDGMRVTSRKSAKYRLQGTIPRGDVSLTILNPSESDSGVYCCRIEVPGWFNDVKINVRLNLQRASTTTHRTATTTTRRTTTTSPTTTRQMTTTPAALPTTVVTTPDLTTGTPLQMTTIAVFTTANTCLSLTPSTLPEEATGLLTPEPSKEGPILTAESETVLPSDSWSSVESTSADTVLLTSKESKVWDLPSTSHVSMWKTSDSVSSPQPGASDTAVPEQNKTTKTGQMDGIPMSMKNEMPISQESKYGPPCPPCPFWVLVVVGGVLACYSLLVTVAFIIFWVRSKRSRLLHSDYMNMTPRRPGPTRKHYQPYAPPRDFAAYRSYFLGRLVPRGRGAAEAATRKQRITETESPYQELQGQRSDVYSDLNTQRPYYK | – | eliminate JeKo-1 mantle cell lymphoma cells | – |
